From patent publication US20120201835A1 (MERCK, published 2012) come the findings set out here.

Substitutions are numbered along the chain they refer to. A value given as a limit tells only on which side of the number the result lay.

The target of experiment [1] is Rhesus monkey Dkk-1 (Rhesus monkey). The experiment in a line: cell-based or functional assay.
The target in experiment [2] is T1, Mouse Dkk-1 (mouse, UniProt O54908 32-272).
T1 construct: Recombinant; also called MsDkk-1; murine Dkk-1
T1 sequence (looked up): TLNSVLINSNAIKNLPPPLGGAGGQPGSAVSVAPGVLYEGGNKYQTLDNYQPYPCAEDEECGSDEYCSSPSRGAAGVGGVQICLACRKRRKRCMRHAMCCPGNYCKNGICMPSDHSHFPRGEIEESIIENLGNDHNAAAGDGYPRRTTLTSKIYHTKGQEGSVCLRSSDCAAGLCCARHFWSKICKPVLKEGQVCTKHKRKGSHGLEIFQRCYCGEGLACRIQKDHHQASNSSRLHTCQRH
The experiment in a line: TRF cell assay, inhibition of Eu-labeled mouse Dkk-1 binding to cells. As to the method:
For the assay, the anti-Dkk-1 antibodies were added to HEK cells overexpressing LRP5 (HEK293hLrp5 cells) at final concentrations of 0.2, 0.6, 2.0, 6.0, and 20 nM. Anti-IL3 Receptor monoclonal antibody (8B4) was used as a negative control. Eu-labeled Dkk-1 (100 pM) was incubated with the cells in absence or presence of the antibodies for 20 minutes. Dkk-1 bound in solution by the antibodies and thus blocked from binding to the cell surface of the HEK293hLrp5 cells was removed by 4× wash steps and Eu-labeled Dkk-1 bound to cell surface was measured by TRF signal. Eu-labeled Dkk-1 protein binding to HEK293 cells overexpressing human LRP5 or LRP6 was monitored by measuring the time-resolved fluorescence of bound ligand.

Experiment [3] deals with Rhesus monkey Dkk-1 (Rhesus monkey). Kind of experiment: TRF cell assay: inhibition of Eu-Dkk-1 binding to HEK293 cells overexpressing LRP5 or LRP6, scFv.
The target of experiment [4] is T1, Mouse Dkk-1. The experiment in a line: phage ELISA (+), scFv-phage on mouse Dkk-1.
Experiment [5] deals with Rhesus monkey Dkk-1 (Rhesus monkey). The experiment in a line: TRF cell assay, inhibition of Eu-Dkk-1 binding to HEK293hLrp5 cells.
For experiment [6] the target is unchanged. The experiment in a line: SPR, Biacore 3000, mean of several independent runs. (In SPR one partner is held on a chip, and binding of the other changes the refractive index at the surface.)
Experiment [7] has the same target. Kind of experiment: TRF cell-based blocking assay: Eu-labeled rhesus Dkk-1 binding to human LRP5 on HEK293hLrp5 cells, RH2-18 titrated over an extended range; no unit is printed beside the number or on the log axis, M follows from 4.75 nM in paragraph 132.
The target of experiment [8] is T2, Human Dkk-1 (human, UniProt O94907 32-266).
T2 sequence: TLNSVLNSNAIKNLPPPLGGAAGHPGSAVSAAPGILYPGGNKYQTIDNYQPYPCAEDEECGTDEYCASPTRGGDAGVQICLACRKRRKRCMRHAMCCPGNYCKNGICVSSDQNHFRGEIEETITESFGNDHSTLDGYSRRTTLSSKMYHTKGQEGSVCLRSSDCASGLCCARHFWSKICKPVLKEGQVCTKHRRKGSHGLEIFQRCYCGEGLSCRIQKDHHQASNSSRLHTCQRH
Kind of experiment: SPR, Biacore 3000, mean of several independent runs. On the procedure:
(§1) The affinity of the RH2-18 antibody for human Dkk-1 and Rhesus Dkk-1 was determined by measuring RH2-18 binding kinetics by surface plasmon resonance in a Biacore 3000 instrument according to manufacturer's instructions (Biacore, Inc., Piscataway, N.J.). Several independent affinity studies were performed using different RH2-18 antibody lots against human Dkk-1 and rhesus Dkk-1.

Experiment [9] concerns the target T3, Rhesus monkey Dkk-2 (chimeric protein: N-terminal region of rhesus Dkk-1 fused to the C-terminal region of … (Rhesus monkey)).
T3 chain: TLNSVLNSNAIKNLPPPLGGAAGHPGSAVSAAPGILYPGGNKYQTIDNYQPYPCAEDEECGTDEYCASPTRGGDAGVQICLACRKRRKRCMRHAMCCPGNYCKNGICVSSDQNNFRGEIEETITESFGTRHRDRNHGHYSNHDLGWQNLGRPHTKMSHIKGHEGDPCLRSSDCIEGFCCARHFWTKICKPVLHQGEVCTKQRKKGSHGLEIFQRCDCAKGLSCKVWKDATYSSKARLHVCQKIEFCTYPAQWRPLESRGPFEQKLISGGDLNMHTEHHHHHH
Kind of experiment: dot blot of native recombinant protein (0 to 100 ng per spot) probed with RH2-18. As to the method: Native recombinant rhesus monkey Dkk-1, Dkk-2, and cynomolgus monkey Dkk-4 proteins (0.1 ng to 100 ng) were used. A non-related recombinant protein was loaded as a control for non-specific assay signal (HIS protein) and probed with the RH2-18 antibodies.
The Dkk-1 amino acid sequence is closely related to that of Dkk-2 and Dkk-4 with 50% and 45% identity at the amino acid-level, respectively. Cross-reactivity of RH2-18 against rhesus monkey Dkk-2 (using a chimeric protein consisting of the N-terminal region of the rhesus Dkk-1 fused to the C-terminal region of the rhesus Dkk-2 with myc and His-6 tags at the C-terminal end of the Dkk-2 C-terminal region; see SEQ ID NO:71) and cynomolgus monkey Dkk-4 (SEQ ID NO:70) was tested by dot-blot analysis using recombinant proteins. Native recombinant rhesus monkey Dkk-1, Dkk-2, and cynomolgus monkey Dkk-4 proteins (0.1 ng to 100 ng) were used. A non-related recombinant protein was loaded as a control for non-specific assay signal (HIS protein). The dot blots were probed with RH2-18. […] Selectivity of the antibody towards Dkk-1 was minimally 100-fold.

Experiment [10] concerns the target T2, Human Dkk-1. Kind of experiment: SPR, Biacore 3000, several independent runs with different antibody lots. On the procedure:
as §1

Experiment [11] concerns the target Rhesus monkey Dkk-1 (Rhesus monkey). Kind of experiment: dot blot of native recombinant proteins, 0.1 ng to 100 ng.
Experiment [12] has the same target. The experiment in a line: SPR, Biacore 3000, several independent runs with different antibody lots.
Experiment [13] shares this target. Kind of experiment: TRF cell assay, inhibition of Eu-Dkk-1 binding to HEK293hLrp5 cells, extended dose range.

B1: RH1-10 antibody (antibody, human IgG2, lambda, V domains shown)
VH: QVQLLQSAAEVKKPGESLKISCKGSGYDFPGYYLHWVRQAPGQGLEWMGWINANSGATNYAQNFQGRVTMTRDTSISAAYMELSSLRSDDTAVYYCTREDHWGRGTTVTVSS
VL: QSVLTQPPSASGAPGQRVTISCTGSSSNIGAGYDVHWYQQLPGAAPKLLIYGNSNRPSGVPDRFSGSKSGTSASLAITGLQAEDEADYYCQSYDSSLSGYVFGTGTKVTVLG
notes: IgG converted from the scFv, IgG2M4 heavy chain constant region
On to B1, for which the pTOPflash/Lef-1 luciferase reporter in HEK293hLrp5 cells, Wnt3A plus 50 nM rhesus Dkk-1 in experiment [1] was greater than 30 nM. The binding result with Mouse Dkk-1 [2] is “binds”.

B2: RH1-10 scFv (phage clone) (scFv, V domains shown)
VH: B1 VH
VL: B1 VL
notes: Single chain Fv from the CAT phage display library (BMV)
In turn, B2 registered a % inhibition of Dkk-1 in experiment [3] of 89%. The binding result with Mouse Dkk-1 [4] was “binds”.

B3: RH2-18 antibody (antibody, human IgG2, lambda, V domains shown)
VH: EVQLVQSGAEVKKPGASVKVSCKASGYTFTDYYIHWVRQAPGQGLEWMGWIHSNSGATTYAQKFQARVTMSRDTSSSTAYMELSRLESDDTAMYFCSREDYWGQGTLVTVSS
VL: QSVLTQPPSVSGAPGQRVTISCTGSSSNIGAGYDVHWYQQLPGTAPKLLIYGYSNRPSGVPDRFSGSKSGASASLAITGLRPDDEADYYCQSYDNSLSSYVFGGGTQLTVLS
notes: also called anti-Dkk-1 antibody RH2-18
In general, Kd refers to the equilibrium constant for the complex coming apart. The EC50 is the concentration that produces a half-maximal response. The molecule B3 displayed an inhibitory activity (concentration) in experiment [5] of 4.75 nM. The dissociation constant Kd in experiment [6] is 0.858 nM; in the experiment with Human Dkk-1 [8], 0.251 nM; with Human Dkk-1 [10] it was 0.202 to 0.269 nM; in experiment [12], 0.771 to 0.934 nM. In [1], the endogenous ALP activity of C3H10T1/2 cells (osteoblastic differentiation), Wnt3A plus recombinant Dkk-1, 3 days was found to be 100 nM. Also, the pTOPflash/Lef-1 luciferase reporter in HEK293hLrp5 cells, Wnt3A plus 50 nM rhesus Dkk-1 in [1] was greater than 30 nM. The binding result with Mouse Dkk-1 [2] was “binds”; in [9], “no binding (tested: 100 ng)”. The molecule also returned an EC50 in experiment [7] of 4.75 nM. Besides, in experiment [11], the detection limit for binding worked out at 1 ng. Further, the selectivity towards Dkk-1 (fold, against Dkk-2 and Dkk-4) in [11] is greater than 100 fold. In addition, the effective dose in [13] stood at 5 nM.

B4: RH2-80 scFv (phage clone) (scFv, V domains shown)
VH: B3 VH with Q104K, L107M
VL: QAVLTQPSSVSGAPGQRVSISCTGSSSNIGAAYDVHWYQQLPGTAPRLLIYVNNNRPSGVPDRFSGSKSGTSASLVIAGLQAEDEADYYCQSYDNSLNAYVFGTGTKLTVLG
notes: Single chain Fv from the CAT phage display library (CS)
The molecule B4 registered a % inhibition of Dkk-1 in experiment [3] of 62%. In addition, in the experiment with Mouse Dkk-1 [4], the binding result is listed as “binds”.

B5: RH2-80 antibody (antibody, human IgG2, lambda, V domains shown)
VH: B3 VH with Q104K, L107M
VL: B4 VL
notes: as for B1
Turning to B5, the pTOPflash/Lef-1 luciferase reporter in HEK293hLrp5 cells, Wnt3A plus 50 nM rhesus Dkk-1 in experiment [1] is greater than 30 nM. The binding result with Mouse Dkk-1 [2] is “binds”.

B6: RH2-59 scFv (phage clone) (scFv, V domains shown)
VH: B3 VH with Q104R, L107M
VL: QAVLTQPSSVSGAPGQRVTISCTGSSSNIGAGYDVHWYQQLPGTAPKLLIYANTNRPSGIPDRFSGSKSGTSASLAITGLQTEDEADYYCQSYDTSPSASYVFGTGTKLTVLG
notes: as for B4
Turning to B6, the % inhibition of Dkk-1 in [3] was 61%. Moreover, the binding result with Mouse Dkk-1 [4] is “binds”.

B7: RH2-59 antibody (antibody, human IgG2, lambda, V domains shown)
VH: B3 VH with Q104R, L107M
VL: B6 VL
notes: as for B1
As to B7, the binding result in the experiment with Mouse Dkk-1 [2] is “binds”.

B8: RH2-18 scFv (phage clone) (scFv, V domains shown)
VH: EVQLVQSGAEVKKPGASVKVSCKASGYTFTDYYIHWVRQAPGQGLEWMGWIHSNSGATTYAQKFQARVTMSRDTSSSTAYMELSRLESDDTAMYFCSREDYWGQGTLVTV
VL: B3 VL
notes: as for B4
As to B8, in [3], the % inhibition of Dkk-1 came to 74%. In addition, in the experiment with Mouse Dkk-1 [4], the binding result is “binds”.
